Laboratory results: EP4628097A1 (Innovent Biologics (Suzhou) Co., Ltd., dated 2025)

Tests used:
[1] = molecular target: T1, human Ang2 (human, UniProt O15123 19-496, limits assumed); assay: ELISA, relative binding activity; final formula 40 mg/mL, 40 C, 4W
T1 construct: Bought proteins; also called hAng2-biotin; Ang2-Bio (Sino)
T1 sequence (looked up): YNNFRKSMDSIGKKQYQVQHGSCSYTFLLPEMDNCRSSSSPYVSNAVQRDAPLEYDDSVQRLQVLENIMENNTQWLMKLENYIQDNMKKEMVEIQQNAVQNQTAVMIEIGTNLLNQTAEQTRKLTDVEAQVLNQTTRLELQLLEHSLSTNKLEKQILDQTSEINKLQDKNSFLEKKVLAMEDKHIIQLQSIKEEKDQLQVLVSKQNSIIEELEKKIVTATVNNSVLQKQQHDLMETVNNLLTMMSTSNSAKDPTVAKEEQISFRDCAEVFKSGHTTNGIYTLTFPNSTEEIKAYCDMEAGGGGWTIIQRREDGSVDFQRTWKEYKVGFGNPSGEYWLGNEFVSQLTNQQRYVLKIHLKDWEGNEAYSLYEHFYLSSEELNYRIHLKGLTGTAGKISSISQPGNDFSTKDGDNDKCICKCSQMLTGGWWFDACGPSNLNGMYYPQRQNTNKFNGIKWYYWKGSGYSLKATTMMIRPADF

[2] = molecular target: T2, human VEGF165 (human, UniProt P15692-4 27-191); assay: as above
T2 construct: all are put under this molecule; also called VEGF A; VEGFA
T2 sequence (P15692 other isoform, or with tags, fused parts or gaps limits assumed): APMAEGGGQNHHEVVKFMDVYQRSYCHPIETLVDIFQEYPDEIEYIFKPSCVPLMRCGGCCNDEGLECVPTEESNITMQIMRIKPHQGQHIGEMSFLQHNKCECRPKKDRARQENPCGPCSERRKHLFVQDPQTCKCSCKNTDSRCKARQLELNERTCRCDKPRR

[3] = molecular target: T1, human Ang2; assay: ELISA, relative binding activity; final formula 40 mg/mL, 25 C, 3M
[4] = molecular target: T2, human VEGF165; assay: as above
[5] = molecular target: T1, human Ang2; assay: ELISA, relative binding activity; IEX04-012 about 40 mg/mL in F9, 40 C, 2 weeks
[6] = molecular target: T2, human VEGF165; assay: as above
[7] = molecular target: T1, human Ang2; assay: ELISA, relative binding activity; final formula 40 mg/mL, T0
[8] = molecular target: T2, human VEGF165; assay: as above
[9] = molecular target: T1, human Ang2; assay: ELISA, relative binding activity; IEX04-012 about 40 mg/mL in F7, 40 C, 1 week
[10] = molecular target: T2, human VEGF165; assay: as above
[11] = molecular target: T1, human Ang2; assay: ELISA, relative binding activity; IEX04-012 about 40 mg/mL in F8, 40 C, 1 week
[12] = molecular target: T2, human VEGF165; assay: as above
[13] = molecular target: T1, human Ang2; assay: ELISA, relative binding activity; IEX04-012 about 40 mg/mL in F7, 40 C, 0 weeks
[14] = molecular target: T2, human VEGF165; assay: as above
[15] = molecular target: T1, human Ang2; assay: ELISA, relative binding activity; IEX04-012 about 40 mg/mL in F1, 40 C, 2 weeks
[16] = molecular target: T2, human VEGF165; assay: as above
[17] = molecular target: T1, human Ang2; assay: ELISA, relative binding activity; IEX04-012 about 40 mg/mL in F8, 40 C, 2 weeks
[18] = molecular target: T2, human VEGF165; assay: as above
[19] = molecular target: T1, human Ang2; assay: ELISA, relative binding activity; IEX04-012 about 40 mg/mL in F6, 40 C, 2 weeks
[20] = molecular target: T2, human VEGF165; assay: as above
[21] = molecular target: T1, human Ang2; assay: ELISA, relative binding activity; IEX04-012 about 40 mg/mL in F7, 40 C, 2 weeks
[22] = molecular target: T2, human VEGF165; assay: as above
[23] = molecular target: T1, human Ang2; assay: ELISA, relative binding activity; 120 mg/mL formula, 2-8 C, 6M
[24] = molecular target: T2, human VEGF165; assay: as above
[25] = molecular target: T1, human Ang2; assay: ELISA, relative binding activity; 150 mg/mL formula, T0
[26] = molecular target: T2, human VEGF165; assay: as above
[27] = molecular target: T1, human Ang2; assay: ELISA, relative binding activity; final formula 40 mg/mL, 2-8 C, 6M

B1: IEX04-012 (bispecific antibody)
chain: DIQLTQSPSSLSASVGDRVTITCSASQDISNYLNWYQQKPGKAPKVLIYFTSSLHSGVPSRFSGSGSGTDFTLTISSLQPEDFATYYCQQYSTVPWTFGCGTKVEIKGGGGSGGGGSGGGGSGGGGSEVQLVESGGGLVQPGGSLRLSCAASGYDFTHYGMNWVRQAPGKCLEWVGWINTYTGEPTYAADFKRRFTFSLDTSKSTAYLQMNSLRAEDTAVYYCAKYPYYYGTSHWYFDVWGQGTLVTVSSGGGGSGGGGSGGGGSEVQLLESGGGLVQPGGSLRLSCAASGFALDYYAIGWFRQAPGKGLEGVSCISSGEGSTYYADSVKGRFTISRDNSKNTVYLQMNSLRAEDTAVYYCATDSRGDDVACEGLRRNEYDYWGQGTLVTVSS
Question: How did the Relative binding Activity to Ang2 (ELISA, %) [1] turn out when B1 was run?
Answer: 74%

Question: What about the Relative binding Activity to VEGF A (ELISA, %) [2] of the same binder?
Answer: 78%

Question: What about the Relative binding Activity to Ang2 (ELISA, %) [3] of the same binder?
Answer: 85%

Question: And the Relative binding Activity to VEGF A (ELISA, %) [4]?
Answer: 96%

Question: And the Relative binding Activity to Ang2 (ELISA, %) [5]?
Answer: 90%

Question: And the Relative binding Activity to VEGF (ELISA, %) [6]?
Answer: 99%

Question: What about the Relative binding Activity to Ang2 (ELISA, %) [7] of the same binder?
Answer: 95%

Question: And the Relative binding Activity to VEGF A (ELISA, %) [8]?
Answer: 103%

Question: And the Relative binding Activity to Ang2 (ELISA, %) [9]?
Answer: 90%

Question: What about the Relative binding Activity to VEGF (ELISA, %) [10] of the same binder?
Answer: 102%

Question: And the Relative binding Activity to Ang2 (ELISA, %) [11]?
Answer: 92%

Question: And the Relative binding Activity to VEGF (ELISA, %) [12]?
Answer: 101%

Question: And the Relative binding Activity to Ang2 (ELISA, %) [13]?
Answer: 100%

Question: What about the Relative binding Activity to VEGF (ELISA, %) [14] of the same binder?
Answer: 100%

Question: And the Relative binding Activity to Ang2 (ELISA, %) [15]?
Answer: 100%

Question: What about the Relative binding Activity to VEGF (ELISA, %) [16] of the same binder?
Answer: 101%

Question: What about the Relative binding Activity to Ang2 (ELISA, %) [17] of the same binder?
Answer: 91%

Question: And the Relative binding Activity to VEGF (ELISA, %) [18]?
Answer: 102%

Question: And the Relative binding Activity to Ang2 (ELISA, %) [19]?
Answer: 89%

Question: What about the Relative binding Activity to VEGF (ELISA, %) [20] of the same binder?
Answer: 99%

Question: And the Relative binding Activity to Ang2 (ELISA, %) [21]?
Answer: 87%

Question: And the Relative binding Activity to VEGF (ELISA, %) [22]?
Answer: 100%

Question: And the Relative binding Activity to Ang2 (ELISA, %) [23]?
Answer: 96%

Question: And the Relative binding Activity to VEGF A (ELISA, %) [24]?
Answer: 99%

Question: And the Relative binding Activity to Ang2 (ELISA, %) [25]?
Answer: 103%

Question: What about the Relative binding Activity to VEGF A (ELISA, %) [26] of the same binder?
Answer: 92%

Question: What about the Relative binding Activity to Ang2 (ELISA, %) [27] of the same binder?
Answer: 100%
